Test results: US20200140532A1 (Ablynx, published 2020)

Assays:
[1] = molecular target: T1, recombinant dog Aggrecan G1-IGD-G2 (dog, UniProt Q28343 20-693, limits assumed); assay: ELISA on recombinant G1-IGD-G2
T1 construct: also called Dog G1-IGD-G2

[2] = molecular target: T2, recombinant human Aggrecan G1-IGD-G2 (human, UniProt P16112 20-676); assay: ELISA on recombinant G1-IGD-G2
T2 construct: Only the G1-IGD-G2 region was used (R&D Systems 1220-PG is named for the immunogen); also called Hu G1-IGD-G2

[3] = molecular target: T3, recombinant rat Aggrecan G1-IGD-G2 (rat, UniProt P07897 20-684, limits assumed); assay: ELISA on recombinant G1-IGD-G2
T3 construct: also called Rat G1-IGD-G2

[4] = molecular target: T4, recombinant bovine Aggrecan G1-IGD-G2 (bovine, UniProt P13608 20-684, limits assumed); assay: ELISA on recombinant G1-IGD-G2
T4 construct: also called Bov G1-IGD-G2; Boy G1-IGD-G2

[5] = molecular target: T1, recombinant dog Aggrecan G1-IGD-G2; assay: periplasmic extract ELISA
[6] = molecular target: T2, recombinant human Aggrecan G1-IGD-G2; assay: periplasmic extract ELISA
[7] = molecular target: T3, recombinant rat Aggrecan G1-IGD-G2; assay: periplasmic extract ELISA
[8] = molecular target: T4, recombinant bovine Aggrecan G1-IGD-G2; assay: periplasmic extract ELISA
[9] = molecular target: recombinant human Neurocan (human, UniProt O14594 23-1321, limits assumed); assay: ELISA on recombinant human Neurocan

Binder	EC50 [1] [nM]	EC50 [2] [nM]	EC50 [3] [nM]	EC50 [4] [nM]	OD 450 nm [5] [OD 450 nm]	OD 450 nm [6] [OD 450 nm]	OD 450 nm [7] [OD 450 nm]	OD 450 nm [8] [OD 450 nm]	EC50 [9] [nM]
C01010118 (ALB26-114F08-114F08) (VHH, not shown: small tags and cut ends, also called C010100118) VHH 1: EVQLVESGGGLVQAGGSLRLSCAASGSTFIINVVRWYRRTPGKQRELVATISSGGNANYVDSVRGRFSISRDGAKNAVDLQMNGLKPEDTAVYYCNVPTTHYGGVYYGPYWGQGTQVTVSS VHH 2: EVQLVESGGGLVQAGGSLRLSCAASGSTFIINVVRWYRRTPGKQRELVATISSGGNANYVDSVRGRFSISRDGAKNAVDLQMNGLKPEDTAVYYCNVPTTHYGGVYYGPYWGQGTQVTVSS	0.24	0.11	0.19	0.37	–	–	–	–	–
C0101PMP114F08 (VHH, Tested as E. coli periplasmic extract; not shown: FLAG3 and His6 tags (phagemid pAX212)) VHH: EVQLVESGGGLVQAGGSLRLSCAASGSTFIINVVRWYRRTPGKQRELVATISSGGNANYVDSVRGRFSISRDGAKNAVDLQMNGLKPEDTAVYYCNVPTTHYGGVYYGPYWGQGTQVTVSS	–	–	–	–	1.9	2.38	2.05	1.18	–
C0101PMP113A01 (VHH, Tested as E. coli periplasmic extract; not shown: FLAG3 and His6 tags (phagemid pAX212)) VHH: EVQLVESGGGLVQPGGSLRLSCSASGFTFSGSWMFWVRQAPGKDYEWVASINSSGGRTYYDDSVKGRFTISRDSAKNTLYLEMNNLKPEDTALYFCARSPRVGSWGQGTQVTVSS	–	–	–	–	2.51	2.56	2.53	2.54	–
C0101PMP117G09 (VHH, Tested as E. coli periplasmic extract; not shown: FLAG3 and His6 tags (phagemid pAX212)) VHH: EVQLVESGGGSALPGGSLRLSCAASGITFSSRYMRWYRQAPGRQRELVAAISSGGRTDYVDSVRGRFTLSINNAKNTVYLQMNDLKPEDTAVYYCYRPRMYVDGTYEKELWGQGTLVTVSS	–	–	–	–	1.68	2.21	2.29	0.76	–
C0101PMP601D02 (VHH, Tested as E. coli periplasmic extract; not shown: FLAG3 and His6 tags (phagemid pAX212)) VHH: DVQLVESGGGLVQPGGSLRLSCAASGPTFSRYAMGWFRQAPGKEREFVAAITWSSGGRTYYADSVKGRFTISRDNSKNTVYLQMNSLRPEDTAVYYCAAARIPVRTYTSEWNYWGQGTLVTVSS	–	–	–	–	2.58	2.58	2.59	–	–
C01010109 (ALB26-608A05-608A05) (VHH, not shown: small tags and cut ends) VHH 1: DVQLVESGGGLVQPGGSLRLSCAASGRTFSTYTMGWFRQAPGKEREFVAAISWSGGTTYYADSVKGRFTISRDNSKNTVYLQMNSLRPEDTAVYYCAARPRYYYYSLYSYDYWGQGTLVTVSS VHH 2: DVQLVESGGGLVQPGGSLRLSCAASGRTFSTYTMGWFRQAPGKEREFVAAISWSGGTTYYADSVKGRFTISRDNSKNTVYLQMNSLRPEDTAVYYCAARPRYYYYSLYSYDYWGQGTLVTVSS	0.33	0.1	0.095	0.077	–	–	–	–	–
C0101PMP608A05 (VHH, Tested as E. coli periplasmic extract; not shown: FLAG3 and His6 tags (phagemid pAX212)) VHH: DVQLVESGGGLVQPGGSLRLSCAASGRTFSTYTMGWFRQAPGKEREFVAAISWSGGTTYYADSVKGRFTISRDNSKNTVYLQMNSLRPEDTAVYYCAARPRYYYYSLYSYDYWGQGTLVTVSS	–	–	–	–	0.86	2.33	2.39	2.27	–
C0101PMP604G01 (VHH, Tested as E. coli periplasmic extract; not shown: FLAG3 and His6 tags (phagemid pAX212)) VHH: DVQLVESGGGLVQPGGSLRLSCAASGRTFSSYTMGWFRQAPGKEREFVAAISWSGRTTYYADSVKGRFTISRDNSKNTVYLQMNSLRPEDTAVYYCAAYRRVRYTNLEVWDYWGQGTLVTVSS	–	–	–	–	1.55	2.27	0.6	0.68	–
C0101PMP117D05 (VHH, Tested as E. coli periplasmic extract; not shown: FLAG3 and His6 tags (phagemid pAX212)) VHH: KVQLVESGGGLVQAGGSLRLSCAASRRTFNMMGWFRQAPGKEREFVAYITWNGGDTRYAESVKGRFTVSRDDVKNTMALQMNRLDPLDTAVYYCGVRIHGSNWSTKADDYDNWGQGTQVTVSS	–	–	–	–	1.53	2.25	2.35	1.92	–
C0101PMP601E08 (VHH, Tested as E. coli periplasmic extract; not shown: FLAG3 and His6 tags (phagemid pAX212)) VHH: DVQLVESGGGLVQPGGSLRLSCTASGRTFSSYAVGWFRQAPGKEREFVAAISRSGRSTYYADSVKGRFTISRDNSKNTVYLQMNSLRPEDTAVYYCAAGLSYYSPHAYYDYWGQGTLVTVSS	–	–	–	–	0.57	2.28	2.49	1.68	–
C0101PMP601E09 (VHH, Tested as E. coli periplasmic extract; not shown: FLAG3 and His6 tags (phagemid pAX212)) VHH: DVQLVESGGGLVQPGGSLRLSCAASGLTFSTYAMGWFRQAPGKEREFVAAISWSGSRTYYADSVKGRFTISRDNSKNTVYLQMNSLRPEDTAVYYCAAYRRPRYSPTGTWDYWGQGTLVTVSS	–	–	–	–	2.57	–	2.61	–	–
C0101PMP604B05 (VHH, Tested as E. coli periplasmic extract; not shown: FLAG3 and His6 tags (phagemid pAX212)) VHH: DVQLVESGGGLVQPGGSLRLSCVASGRTFSIYTMAWFRQAPGKEREFVAAISWSSGRTYYADSVKGRFTISRDNSKNTVYLQMNSLRPEDTAVYYCTAYTGPRSGYDYWGQGTLVTVSS	–	–	–	–	1.27	2.48	1.98	1.63	–
C0101PMP112A03 (VHH, Tested as E. coli periplasmic extract; not shown: FLAG3 and His6 tags (phagemid pAX212)) VHH: EVQLVESGGGLVQPGGSLRLSCAASGSIFSNRFMYWYRQAPGKQRELVASITLSGSTNYADSVKGRFTISRDNAKNTVYLQMNSLKPEDTAVYYCNTFLQNSFYWGQGTQVTVSS	–	–	–	–	1.47	2.51	1.69	0.73	–
C0101PMP609C09 (VHH, Tested as E. coli periplasmic extract; not shown: FLAG3 and His6 tags (phagemid pAX212)) VHH: DVQLVESGGGLVQPGGSLRLSCAASGTIFSINVMGWYRQAPGKEREFVAAITTGGRTNYADSVKGRFTISRDNSKNTVYLQMNSLRPEDTAVYYCNAEVTTGWVGYSWYDYWGQGTMVTVSS	–	–	–	–	1.52	2.1	0.97	1.08	–
C01010106 (ALB26-604F02-604F02) (VHH, not shown: large carriers; small tags and cut ends) VHH 1: DVQLVESGGGLVQPGGSLRLSCAASGRTFSSYTMGWFRQAPGKEREFVAAISWSGGRTYYADSVKGRFTISRDNSKNTVYLQMNSLRPEDTAVYYCAAYRRRRASSNRGLWDYWGQGTLVTVSS VHH 2: DVQLVESGGGLVQPGGSLRLSCAASGRTFSSYTMGWFRQAPGKEREFVAAISWSGGRTYYADSVKGRFTISRDNSKNTVYLQMNSLRPEDTAVYYCAAYRRRRASSNRGLWDYWGQGTLVTVSS	0.097	0.066	0.1	–	–	–	–	–	–
C0101PMP604F02 (VHH, Tested as E. coli periplasmic extract; not shown: FLAG3 and His6 tags (phagemid pAX212)) VHH: DVQLVESGGGLVQPGGSLRLSCAASGRTFSSYTMGWFRQAPGKEREFVAAISWSGGRTYYADSVKGRFTISRDNSKNTVYLQMNSLRPEDTAVYYCAAYRRRRASSNRGLWDYWGQGTLVTVSS	–	–	–	–	1.04	2.41	0.78	0.82	–
C0101PMP115B08 (VHH, Tested as E. coli periplasmic extract; not shown: FLAG3 and His6 tags (phagemid pAX212)) VHH: KVQLVESGGGLVQPGGSLRLSCAASGFTFSMYAMKWVRQAPGKGLEWVSGINSSGGRTNYAGSVKGRFTISRDNAKNTLYLQMNSLKPEDTAVYYCATDFLGGRNSRGQGTQVTVSS	–	–	–	–	1.8	1.65	1.85	0.84	–
C0101PMP112A01 (VHH, Tested as E. coli periplasmic extract; not shown: FLAG3 and His6 tags (phagemid pAX212)) VHH: EVQLVESGGGLVQTGGSLRLSCVASGRAFSNYIMGWFRQAPGKERDFVAAINWNGVTTHYTDSVKGRFTISRDNAKSTSYLQMDSLKPDDTAVYFCAARGTVYSRTYGVSEEGYMYWGQGTQVTVSS	–	–	–	–	1.57	2.5	2.03	2.41	–
C01010113 (ALB26-606A07-606A07) (VHH, not shown: small tags and cut ends, also called AL326-606A07-606A07) VHH 1: DVQLVESGGGLVQPGGSLRLSCVASGRTFSIYGMGWFRQAPGKEREFVAAINGGSRTYYADSVKGRFTISRDNSKNTVYLQMNSLRPEDTAVYYCAADRSGYGTSLDWWYDYWGQGTLVTVSS VHH 2: DVQLVESGGGLVQPGGSLRLSCVASGRTFSIYGMGWFRQAPGKEREFVAAINGGSRTYYADSVKGRFTISRDNSKNTVYLQMNSLRPEDTAVYYCAADRSGYGTSLDWWYDYWGQGTLVTVSS	3	0.67	0.12	–	–	–	–	–	0.87
C0101PMP606A07 (VHH, Tested as E. coli periplasmic extract; not shown: FLAG3 and His6 tags (phagemid pAX212)) VHH: DVQLVESGGGLVQPGGSLRLSCVASGRTFSIYGMGWFRQAPGKEREFVAAINGGSRTYYADSVKGRFTISRDNSKNTVYLQMNSLRPEDTAVYYCAADRSGYGTSLDWWYDYWGQGTLVTVSS	–	–	–	–	1.47	0.71	2.31	–	–
C0101PMP604G09 (VHH, Tested as E. coli periplasmic extract; not shown: FLAG3 and His6 tags (phagemid pAX212)) VHH: DVQLVESGGGLVQPGGSLRLSCVASGRTFSSYAMGWFRQAPGKEREFVAAITWSSATTYYADSVKGRFTISRDNSKNTVYLQMNSLRPEDTAVYYCAAARIPVGRRSENWDYWGQGTLVTVSS	–	–	–	–	1.16	2.41	1.4	1.21	–
